Experimental data reported in paper doi:10.1101/2020.03.25.007906 (bioRxiv, 2020).

Legend:
[1] = biological target: T1, purified recombinant drDnaA (Deinococcus radiodurans R1, UniProt Q9RYE7 1-466); assay: SPR
T1 sequence (looked up): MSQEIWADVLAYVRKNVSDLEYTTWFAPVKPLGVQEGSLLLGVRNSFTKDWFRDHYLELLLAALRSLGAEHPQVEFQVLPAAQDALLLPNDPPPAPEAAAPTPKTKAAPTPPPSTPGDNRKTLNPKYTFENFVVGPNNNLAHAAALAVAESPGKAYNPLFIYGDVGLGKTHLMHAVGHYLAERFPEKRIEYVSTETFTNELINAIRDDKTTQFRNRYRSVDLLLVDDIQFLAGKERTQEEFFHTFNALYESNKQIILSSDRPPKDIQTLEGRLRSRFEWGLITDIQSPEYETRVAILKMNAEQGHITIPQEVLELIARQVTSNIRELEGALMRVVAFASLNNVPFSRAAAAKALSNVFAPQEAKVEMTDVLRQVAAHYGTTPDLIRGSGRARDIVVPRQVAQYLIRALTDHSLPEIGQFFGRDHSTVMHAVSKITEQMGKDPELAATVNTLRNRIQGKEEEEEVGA

[2] = biological target: T2, purified recombinant drDnaB (Deinococcus radiodurans R1, UniProt Q9RWW6 1-448); assay: SPR
T2 sequence (looked up): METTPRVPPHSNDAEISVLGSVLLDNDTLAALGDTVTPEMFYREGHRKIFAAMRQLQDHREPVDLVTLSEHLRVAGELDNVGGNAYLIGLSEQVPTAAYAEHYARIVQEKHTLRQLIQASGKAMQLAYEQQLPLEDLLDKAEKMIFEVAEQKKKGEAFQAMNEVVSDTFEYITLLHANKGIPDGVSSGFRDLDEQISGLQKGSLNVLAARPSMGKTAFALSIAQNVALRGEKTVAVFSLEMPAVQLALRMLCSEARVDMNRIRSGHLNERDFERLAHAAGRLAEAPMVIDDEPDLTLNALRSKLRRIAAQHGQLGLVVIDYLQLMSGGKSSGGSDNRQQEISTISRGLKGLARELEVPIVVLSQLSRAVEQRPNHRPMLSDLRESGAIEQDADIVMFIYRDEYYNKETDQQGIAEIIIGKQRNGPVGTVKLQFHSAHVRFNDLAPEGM

- Kd [1]: 541 nM
- Kd [2]: 971 nM
B1: recombinant PprA (natural protein, Deinococcus radiodurans, UniProt O32504 1-300, looked up)
chain: MLPLAFLICSGHNKGSMARAKAKDQTDGIYAAFDTLMSTAGVDSQIAALAASEADAGTLDAALTQSLQEAQGRWGLGLHHLRHEARLTDDGDIEILTDGRPSARVSEGFGALAQAYAPMQALDERGLSQWAALGEGYRAPGDLPLAQLKVLIEHARDFETDWSAGRGETFQRVWRKGDTLFVEVARPASAEAALSDAAWDVIASIKDRAFQRELMRRSEKDGMLGALLGARHAGAKANLAQLPEAHFTVQAFVQTLSGAAARNAEEYRAALKTAAAALEEYQGVTTRQLSEVLRHGLRES
